Results as given in patent publication US20260028400A1.

Molecular target: ROR1 expressed on cell surface (Jeko-1 cell line, AMB-LC-0003T and AMB-LC-0002T patient-derived lung cancer cells) (human) (UniProt Q01973)
Assay: cell-based or functional assay

Sequence of ROR1 expressed on cell surface (Jeko-1 cell line, AMB-LC-0003T and AMB-LC-0002T patient-derived lung cancer cells) (human) (Q01973 30-937): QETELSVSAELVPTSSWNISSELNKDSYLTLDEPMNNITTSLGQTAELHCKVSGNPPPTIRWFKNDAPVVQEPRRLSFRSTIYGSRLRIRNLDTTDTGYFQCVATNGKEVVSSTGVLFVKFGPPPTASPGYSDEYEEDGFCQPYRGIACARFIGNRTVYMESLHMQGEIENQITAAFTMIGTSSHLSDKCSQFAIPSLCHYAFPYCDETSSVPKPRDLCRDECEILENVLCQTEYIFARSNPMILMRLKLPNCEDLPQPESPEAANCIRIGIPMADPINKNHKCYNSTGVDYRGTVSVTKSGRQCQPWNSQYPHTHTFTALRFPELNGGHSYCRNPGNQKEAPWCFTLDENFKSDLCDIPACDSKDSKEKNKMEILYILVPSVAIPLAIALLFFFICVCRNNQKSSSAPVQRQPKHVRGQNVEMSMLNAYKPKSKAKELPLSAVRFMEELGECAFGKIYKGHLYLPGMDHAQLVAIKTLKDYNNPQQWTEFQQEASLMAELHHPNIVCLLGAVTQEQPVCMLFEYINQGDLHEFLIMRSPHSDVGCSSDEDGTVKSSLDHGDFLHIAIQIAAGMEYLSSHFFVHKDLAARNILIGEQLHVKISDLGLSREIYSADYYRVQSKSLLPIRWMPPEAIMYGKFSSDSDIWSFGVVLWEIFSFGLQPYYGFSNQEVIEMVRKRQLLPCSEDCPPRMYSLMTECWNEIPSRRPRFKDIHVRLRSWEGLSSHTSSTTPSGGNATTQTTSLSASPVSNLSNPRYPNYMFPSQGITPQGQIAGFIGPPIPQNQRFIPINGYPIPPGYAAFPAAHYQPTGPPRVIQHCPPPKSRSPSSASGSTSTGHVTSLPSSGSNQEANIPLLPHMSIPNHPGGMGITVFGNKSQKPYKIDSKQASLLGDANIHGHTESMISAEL

Fold Change of IC50, AMB-LC-0002T/AMB-LC-0003T: 11.1 fold
IC50 (nM), spheroid volume, AMB-LC-0002T (low ROR1 expression): 282 nM
IC50 (nM), spheroid volume, AMB-LC-0003T (high ROR1 expression): 25.4 nM
Substance: UC961-vc-PAB-MMAE (antibody)
